Measured values as given in patent US20170145112A1 (Genentech, published 2017).
Positions count from the first letter of the chain named. In names and notes the source's numbering stands. Blank lines part the entries; values can stand above or below the binder they belong to.

Tests used:
[1] = target: T1, Human complement Factor D, mature (human, UniProt P00746 27-253); experiment: SPR, Biacore T200, IgG captured by anti-Fc, human factor D injected
T1 construct: In the TR-FRET assay the factor D was bought from Complement Technology; In the hemolysis assay it was the factor D of C1q-depleted human serum; also called human Factor D; hFD

[2] = target: T1, Human complement Factor D, mature; experiment: cell-based or functional assay
[3] = target: T1, Human complement Factor D, mature; experiment: SPR (refers to FIG. 11); hu20D12.v2.0
Description: (§1) Kinetics and binding constant KD for Factor D binding to immobilized hu20D12 versions was determined by surface plasmon resonance (SPR) measurements on a Biacore®T200 instrument. […] After subtraction of the sensorgram observed for injection of running buffer, data were analyzed according to a 1:1 model using BiaEval software v4.1 (GE Healthcare) to extract the kinetics and affinity constants.

[4] = target: T1, Human complement Factor D, mature; experiment: cell-based or functional assay; remark: listed apart in the source
[5] = target: T1, Human complement Factor D, mature; experiment: SPR (Biacore T200): Fab captured with anti-huFab kit, human Factor D injected, 25 C, 1:1 model;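 also: sensorgrams were corrected by subtracting a blank injection of running buffer before fitting kinetic and affinity constants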
Target sequence in this assay (P00746 27-253): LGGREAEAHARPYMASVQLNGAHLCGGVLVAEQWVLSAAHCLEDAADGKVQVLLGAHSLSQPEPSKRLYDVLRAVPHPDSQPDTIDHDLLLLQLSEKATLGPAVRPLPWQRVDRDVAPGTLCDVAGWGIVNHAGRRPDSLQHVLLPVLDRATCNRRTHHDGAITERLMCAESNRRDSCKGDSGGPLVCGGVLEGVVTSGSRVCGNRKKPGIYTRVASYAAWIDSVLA
Description: as §1

[6] = target: T1, Human complement Factor D, mature; experiment: cell-based or functional assay; remark: listed apart in the source
[7] = target: T2, Cynomolgus monkey complement Factor D (cynomolgus monkey, UniProt P00746 26-253 (human entry)); experiment: SPR (Biacore T200), Fab format; cynomolgus Factor D (column 'KD (pM) cFD (cyno)')
T2 construct: also called cyfD; cFD
T2 chain: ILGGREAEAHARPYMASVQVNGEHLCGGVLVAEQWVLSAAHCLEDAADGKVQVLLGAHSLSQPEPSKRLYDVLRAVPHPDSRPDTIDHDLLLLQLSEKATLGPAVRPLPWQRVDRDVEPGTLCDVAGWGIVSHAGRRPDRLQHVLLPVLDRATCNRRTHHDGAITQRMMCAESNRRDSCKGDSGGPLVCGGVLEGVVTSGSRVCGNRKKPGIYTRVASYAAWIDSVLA

[8] = target: T1, Human complement Factor D, mature; experiment: cell-based or functional assay; remark: listed apart in the source
Target sequence in this assay (P00746 27-253): as the sequence (P00746 27-253) above

[9] = target: T1, Human complement Factor D, mature; experiment: cell-based or functional assay; remark: listed apart in the source
[10] = target: T1, Human complement Factor D, mature; experiment: SPR, Fab captured by anti-huFab, human Factor D injected
Description: as §1

[11] = target: T1, Human complement Factor D, mature; experiment: cell-based or functional assay; remark: listed apart in the source
Target sequence in this assay (P00746 27-253): as the sequence (P00746 27-253) above

[12] = target: T2, Cynomolgus monkey complement Factor D; experiment: SPR, cynomolgus monkey factor D
[13] = target: T1, Human complement Factor D, mature; experiment: SPR, Fab captured by anti-huFab, human Factor D injected; remark: listed apart in the source
[14] = target: T1, Human complement Factor D, mature; experiment: SPR, at the limit of detection
Target sequence in this assay (P00746 27-253): as the sequence (P00746 27-253) above
Description: as §1

B2: hu20D12.v2.0 Fab (Fab, V domains shown)
VH: EVQLVQSGAEVKKPGASVKVSCKASGYTFTSYYMYWVRQAPGQGLEWIGEINPTSGGTNFNEKFKSRATLTVDTSTSTAYLELSSLRSEDTAVYYCAREGGFAYWGQGTLVTVSS
VL: DIQMTQSPSSLSASVGDRVTITCKASQNVDTDVAWFQQKPGKAPKGLIYSASSRYSGVPSRFSGSGSGTDFTLTISSLQPEDFATYYCQQYNNYPLTFGQGTKVEIKR
notes: Fab expressed in E. coli; also called Hu20D12.v1.N54S; hu20D12.v1.N54S
Kd [3]: 0.039 nM
FRET IC50 (TR-FRET assay of Factor D-dependent factor B activation), value 1 of 2 in the cell [4]: 0.051 nM
FRET IC50 (TR-FRET assay of Factor D-dependent factor B activation), value 2 of 2 in the cell [4]: 0.059 nM
koff [5]: 0.00055 s⁻¹
kon [5]: 1.4e+07 M⁻¹ s⁻¹
IC50 in the TR-FRET assay, fold against lampalizumab [6]: ~2 fold
Kd [7]: 0.152 nM
AVG IC50 (pM), TR-FRET assay of Factor D-dependent factor B activation [8]: 59.2 pM
IC50 Hemolysis [9]: 4.7 nM
Kd [10]: 0.04 nM

B3: hu20D12.v1 IgG (antibody, V domains shown)
VH: B2 VH with S55N
VL: DIQMTQSPSSLSASVGDRVTITCKASQNVDTDVAWFQQKPGKAPKGLIYSASSRYSGVPSRFSGSGSGTDFTLTISSLQPEDFATYYCQQYNNYPLTFGQGTKVEIK
notes: Expressed as full length IgG in CHO cells
Kd [1]: 0.046 nM
koff [1]: 0.00067 s⁻¹
kon [1]: 1.5e+07 M⁻¹ s⁻¹
Hemolysis IC50 [2]: 4.3 nM

Continued, in another order:

Kd [1]: 0.066 nM
koff [1]: 0.00039 s⁻¹
kon [1]: 5.9e+06 M⁻¹ s⁻¹
B1: murine 20D12 (mu20D12) IgG (antibody, V domains shown)
VH: QVQLQQSGAELVKPGASVKLSCKASGYTFTSYYMYWVKERPGQGLEWIGEINPTNGGTNFNEKFKSKATLTVDTSSNTAYMQLSSLTSEDSAVYYCAREGGFAYWGQGTLVTVSA
VL: DIVMTQSQKFMSTSVGDRVSVTCKASQNVDTDVAWFQQKPGQSPRGLIYSASSRYSGVPDRFTGSGSGTDFTLTISNVQSEDLAEYFCQQYNNYPLTFGSGTKVEIK
notes: IgG format, mouse antibody
Hemolysis IC50 [2]: 4 nM

IC50, TR-FRET assay of Factor D (50 pM) cleavage of factor B [11]: 32 pM
FRET IC50 (TR-FRET assay of Factor D-dependent factor B activation), value 1 of 2 in the cell [4]: 0.033 nM
FRET IC50 (TR-FRET assay of Factor D-dependent factor B activation), value 2 of 2 in the cell [4]: 0.032 nM
Kd [12]: 0.017 nM
fold improvement of affinity relative to hu20D12.v2.0 [12]: ~10 fold
fold improvement of affinity relative to lampalizumab [12]: 2 fold
Kd [5]: < 0.01 nM
koff [5]: 8.1e-05 s⁻¹
kon [5]: 1.2e+07 M⁻¹ s⁻¹
fold improvement in binding relative to hu20D12.v2.0 [13]: ≥ 4 fold
Kd [14]: ~0.01 nM
B4: hu20D12.v2.1 Fab (Fab, V domains shown)
VH: B2 VH
VL: B2 VL with Y49R
